The data set “SEC” deals with the molecule itself. Put plainly: SEC. Background: Size exclusion chromatography separates by hydrodynamic size, large species first.
The target in data set [1] is adenylate kinase 2 (AK2), recombinant human (human, UniProt P54819 1-239). Put plainly: SEC.

B1: AIFM1 ΔR201 (disease-related variant) (domain or fragment)
chain: LGLTPEQKQKKAALSASEGEEVPQDKAPSHVPFLLIGGGTAAFAAARSIRARDPGARVLIVSEDPELPYMRPPLSKELWFSDDPNVTKTLRFKQWNGKESIYFQPPSFYVSAQDLPHIENGGVAVLTGKKVVQLDVRDNMVKLNDGSQITYEKCLIATGGTPRSLSAIDRAGAEVKSRTTLFRKIGDFRSLEKISREVKSITIIGGGFLGSELACALGRKARALGTEVIQLFPEKGNMGKILPEYLSNWTMEKVRREGVKVMPNAIVQSVGVSSGKLLIKLKDGRKVETDHIVAAVGLEPNVELAKTGGLEIDSDFGGFRVNAELQARSNIWVAGDAACFYDIKLGRRRVEHHDHAVVSGRLAGENMTGAAKPYWHQSMFWSDLGPDVGYEAIGLVDSSLPTVGVFAKATAQDNPKSATEQSGTGIRSESETESEASEITIPPSTPAVPQAPVQGEDYGKGVIFYLRDKVVVGIVLWNIFNRMPIARKIIKDGEQHEDLNEVAKLFNIHED
By stoichiometry N is commonly meant the number of molecules, sites or subunits per partner or assembly. In the case of B1, the “stoichiometry N” value in “SEC” is 2. In data set [1], the binding result was “binds”.

(Values after article doi:10.1101/2024.08.22.609182 (bioRxiv, 2024).)
